Measured values as given in patent US20220064286A1.
Blank lines part the entries; values can stand above or below the binder they belong to.

What was measured:
[1] = molecular target: hTIGIT mutant Y113A (human) (UniProt Q495A1); experiment: SPR (BIACORE) KD normalized to WT, N=2
[2] = molecular target: hTIGIT mutant Q53A (human) (UniProt Q495A1); experiment: SPR (BIACORE) KD normalized to WT, N=2
[3] = molecular target: hTIGIT mutant Y113A (human) (UniProt Q495A1); experiment: SPR (BIACORE), N=2
[4] = molecular target: hTIGIT mutant Q53A (human) (UniProt Q495A1); experiment: SPR (BIACORE), N=2
[5] = molecular target: hTIGIT mutant N70A (human) (UniProt Q495A1); experiment: SPR (BIACORE) KD normalized to WT, N=2
[6] = molecular target: hTIGIT mutant N70A (human) (UniProt Q495A1); experiment: SPR (BIACORE), N=2
[7] = molecular target: hTIGIT mutant H76A (human) (UniProt Q495A1); experiment: SPR (BIACORE) KD normalized to WT, N=2
[8] = molecular target: hTIGIT mutant L73A (human) (UniProt Q495A1); experiment: SPR (BIACORE) KD normalized to WT, N=2
[9] = molecular target: hTIGIT mutant H76A (human) (UniProt Q495A1); experiment: SPR (BIACORE), N=2
[10] = molecular target: hTIGIT mutant L73A (human) (UniProt Q495A1); experiment: SPR (BIACORE), N=2

Chain of hTIGIT mutant Y113A (human) (Q495A1 22-141 Y113A limits assumed): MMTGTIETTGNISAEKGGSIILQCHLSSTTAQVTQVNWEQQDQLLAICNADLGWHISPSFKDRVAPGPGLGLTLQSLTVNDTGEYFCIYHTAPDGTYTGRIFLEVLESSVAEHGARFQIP
Chain of hTIGIT mutant Q53A (human) (Q495A1 22-141 Q53A limits assumed): as the sequence (Q495A1 22-141 Y113A limits assumed) above, with Q32A, A92Y counted along it
Chain of hTIGIT mutant L73A (human) (Q495A1 22-141 L73A limits assumed): as the sequence (Q495A1 22-141 Y113A limits assumed) above, with L52A, A92Y counted along it
Chain of hTIGIT mutant N70A (human) (Q495A1 22-141 N70A limits assumed): as the sequence (Q495A1 22-141 Y113A limits assumed) above, with N49A, A92Y counted along it
Chain of hTIGIT mutant H76A (human) (Q495A1 22-141 H76A limits assumed): as the sequence (Q495A1 22-141 Y113A limits assumed) above, with H55A, A92Y counted along it

Binding affinity drop vs. WT [1]: > 56 fold | Binding affinity drop vs. WT [2]: > 56 fold | Kd [3]: > 100 nM | Kd [4]: > 100 nM
B1: 7.4A3.C96S.Q1E (antibody, V domains shown)
VH: EVQLVQSGSDLKKPGASVRVSCKASGYTFTSYPMNWVRQAPGHGLEWMGWINTNTGNPTYVQGFTGRFVFSLDTSVNTAYLQISSLKAEDTAVYFCARTGGHTYDSYAFDVWGQGTMVTVSS
VL: DIQLTQSPTFLSASVGDRVTITCRASQVISSSLAWYQQNPGKAPKLLIYAASTLQSGVPSRFSGSGSGTEFTLTISSLQPEDFVTYYCQHLHGYPSNFGQGTKVEIK

Binding affinity drop vs. WT [1]: > 16.2 fold | Binding affinity drop vs. WT [5]: > 16.2 fold | Binding affinity drop vs. WT [2]: > 16.2 fold | Kd [3]: > 500 nM | Kd [6]: > 500 nM | Kd [4]: > 500 nM
B2: 4.1A4.C96S.Q1E (antibody, V domains shown)
VH: EVQLVQSGSELKKPGASVKVSCKASGYTLTNYPMNWVRQAPGRGLEWMGWINTNTGSPAYAQDFTERFVFSLDTSVTTAYLQISSLKAEDTAVYYCARTAITSVYHFDYWGQGTLVTVSS
VL: DIQLTQSPSFLSASVGDRVTITCRASQGISSYLAWYQQKPGKAPRVLIYGATTLQSGVPSRFSGSESGTEFTLTISSLQPEDLATYYCQKLNSHPSSFGQGTKVEIK

Binding affinity drop vs. WT [7]: > 143 fold | Binding affinity drop vs. WT [8]: > 143 fold | Kd [9]: > 100 nM | Kd [10]: > 100 nM
B3: h6B2.L2H5 (antibody, V domains shown)
VH: EVTLKESGPALVKPTQTLTLTCTFSGFSLSTYGMGVSWIRQPPGKALEWLASIWWNGNTYYNPSLKSRLTITKDTSKNQVVLTMTNMDPVDTATYYCAHTGGAVITWFAYWGQGTLVTVSS
VL: DIQMTQSPSSLSASVGDRVTITCKASQSVGKNIAWYQQKPGKAPKLLIYYASNRYTGVPSRFSGSGSGTDFTFTISSLQPEDIATYYCQHIYNSPYPFGQGTKVEIK
